Results taken from patent publication US20130116185A1, “PHOSPHATIDYLINOSITOL 3-KINASES ACTIVITY REGULATOR INCLUDING THE FIFTH ZINC FINGER DOMAIN OF FOG2” (SNU R&DB FOUNDATION, priority 2010, published 2013).

How the values were obtained:
Assay type in all cases: cell-based
[1] = system: MDA MB 231 cells; assay: Cell migration, modified Boyden chamber method; details: 4 μM peptide, 2 days of treatment, 18 hr migration, FIG. 3B
Method: MDA MB 231 cells were transfected with pCK-flag (control), FOG2-wt (wild type) and FOG2 mutants having modified zinc finger domain (FOG2-ZF-5-m and FOG2-ZF-6-m). The cell migration was then analyzed using the modified Boyden chamber method (Albini A et al., Cancer Res 1987 47:3239-45). Following the transfection for 24 hr, MDA MB 231 cells (1×10^5) were suspended in a serum-free medium and seeded in triplicate in the upper part of BD chamber ([…] pore size). The lower part was filled with the serum-free medium. Following the incubation at 37° C. for 18 hr, non-migrating cells positioned at the upper surface of filters were cleaned with a cotton swab. The migrating cells passing through the lower surface of filters were fixed with 70% ethanol and treated with the Giemsa staining solution for 50 min. Then, the cells were rinsed with water and observed under a microscope. The cell migration rate was determined by counting the number of cells present in randomly-selected six sections and the migration range was expressed as the average number of cells per a microscopic field.
MDA MB 231 cells were incubated with 4 μM Mock (control, DMSO), 4 μM ZF-5-wt-24, 4 μM ZF-5-m-24, 4 μM ZF-5-wt-20 or 4 μM ZF-3-wt-21. After treatment, the cell migration was analyzed using the modified Boyden chamber method (Albini A et al., Cancer Res 1987 47:3239-45). After 2 days of treatment, MDA MB 231 cells (1×10^5) were suspended in the serum free medium and seeded in triplicate in the upper part of BD chamber ([…] pore size). The lower part was filled with the serum free medium. Following the incubation at 37° C. for 18 hr, non-migrating cells positioned at the upper surface of filters were cleaned with the cotton swab. The migrating cells passing through the lower side surface of filters were fixed with 70% ethanol and stained using the Giemsa stain method. The cell migration rate was determined by counting the number of cells present in randomly-selected six sections and the migration range was expressed as the average number of cells per a microscopic field.

[2] = biological target: T1, PI3K (Homo sapiens, UniProt P27986); assay: IGF-1-induced PI3K activation in Hep3B cells incubated with peptides; set-up: The cell lysates were immunoprecipitated with p85α (sc-1637, Santa Cruz) and Protein G-Sepharose beads; endogenous in cells; host or cells: Hep3B; details: 4 μM peptides, 48 hr, FIG. 2C
Method: (§1) For measurement of PI3K activity, 10 μl of sonicated PIP2 (1 μg/μl, Calbiochem), 10 μl of 100 mM MgCl2 and 1 μl of [-^32P]ATP (500 μCi/ml) were added to the kinase buffer (10 mM Tris-HCl (pH 7.4), 150 mM NaCl, 1 mM Na3VO4, 10 mM ZnCl2) and incubated at 37° C. for 30 min. After incubation, 20 μl of 6 N HCl was added to stop the reaction and PIP2 was extracted by treatment with 200 μl of methanol:chloroform (1:1) solution. The amount of radioactively labeled PIP2 in the extract was measured using a scintillator counter.
In addition, Hep3B liver cancer cells were incubated with 4 μM peptides for 48 hr and the PI3K activity was analyzed.

[3] = system: MDA MB 231 cells; assay: Cell proliferation MTT assay; details: synthesized peptide, increasing concentration, FIG. 6B
Method: Because the PI3K activation is critical in cell growth, the cell proliferation was analyzed to investigate the inhibitory effect of the FOG2 zinc finger domain using the MTT assay.
MDA MB 231 cells were seeded in a 96-well plate, and transfected with 100 ng DNA of pCKflag, FOG2-wt, FOG2-ZF-5-m or FOG2-ZF-6-m using Lipofectamine 2000. On 3 days post-transfection, the MTT assay was performed.
MDA MB 231 cells (2×10^3 cells) were seeded in a 96-well plate and treated with 4 μM each peptide for 3 days. After the treatment, 50 μl of MTT solution (2 mg/ml) was added to each well, incubated at 37° C. for 1 hr. Then, 150 μl of DMSO was added to each well and the absorbance value of each well was measured at 590 nm using a microplate reader.

[4] = biological target: T1, PI3K; assay: PI3K activity in MDA MB 231 cells incubated with zinc finger domain peptides; set-up: The cell lysates were immunoprecipitated with p85α (sc-1637, Santa Cruz) and Protein G-Sepharose beads; endogenous in cells
Method: as §1
For peptide treatment, cells were trypsinized to detach them from a culture dish and their aliquot (2×10^5 cells) was incubated with 4 μM peptides in 100 mm dishes. The control was incubated with Mock (DMSO).

T1 sequence (P27986 whole entry): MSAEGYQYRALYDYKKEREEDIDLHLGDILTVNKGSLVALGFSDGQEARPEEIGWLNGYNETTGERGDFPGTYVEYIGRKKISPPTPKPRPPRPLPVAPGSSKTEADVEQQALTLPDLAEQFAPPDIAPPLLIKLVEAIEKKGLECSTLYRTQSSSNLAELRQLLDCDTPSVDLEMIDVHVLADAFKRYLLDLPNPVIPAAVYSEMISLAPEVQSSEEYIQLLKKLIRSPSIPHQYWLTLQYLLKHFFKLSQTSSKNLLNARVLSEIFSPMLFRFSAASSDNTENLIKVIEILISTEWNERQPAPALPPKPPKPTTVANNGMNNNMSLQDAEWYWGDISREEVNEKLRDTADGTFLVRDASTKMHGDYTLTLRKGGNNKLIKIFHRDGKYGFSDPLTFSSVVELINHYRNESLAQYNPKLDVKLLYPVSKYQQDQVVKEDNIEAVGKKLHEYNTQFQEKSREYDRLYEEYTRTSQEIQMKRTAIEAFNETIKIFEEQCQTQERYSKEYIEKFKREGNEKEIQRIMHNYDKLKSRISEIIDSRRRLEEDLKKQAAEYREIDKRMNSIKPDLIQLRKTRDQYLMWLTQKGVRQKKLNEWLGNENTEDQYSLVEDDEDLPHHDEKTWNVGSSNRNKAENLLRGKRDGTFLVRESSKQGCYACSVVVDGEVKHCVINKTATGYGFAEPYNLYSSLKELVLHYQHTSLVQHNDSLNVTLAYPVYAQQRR

## ZF-3-wt-21: The peptide not comprising the fifth zinc finger domain of FOG2 (LKCTVCSYTADSVINFHQHLF) [reference compound]
[1]
  reduction of cell migration: not observed
[2]
  IGF-1-induced PI3K activation: did not inhibit

## ZF-5-m-24: FOG2 mutant peptide with altered fifth zinc finger domain (24 amino acids) (CFECNITFNNLDNYLYLVAKKAYC)
[3]
  inhibitory effect on cell proliferation: does not
[1]
  reduction of cell migration: not observed
[4]; MDA MB 231 cells, 4 μM peptide, 48 hr, relative to ZF-5-wt-24, FIG. 5B
  inhibition of PI3K activity: approximately 30%
[4]; synthesized peptides, FIG. 5
  PI3K activity: does not affect
[2]
  IGF-1-induced PI3K activation: did not inhibit
